According to the supplement of paper PMC10724198:
± gives the standard deviation of the averaged measurements.

Experiments:
[1] = test system: Saccharomyces cerevisiae; experiment: protein stability index of tFT-peptide fusion (C-terminal peptide) (PSI (0-1 scale)); higher = more stable (slower turnover)
Experimental: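 MPS profiling in S. cerevisiae of the tFT-X12 degron library: putative degron peptides plus stable controls, 12 aa, fused to the C-terminus of a sfGFP-mCherry timer. Cells are FACS-sorted into 8 mCherry/sfGFP bins and deep-sequenced. PSI runs from 0 (unstable) to 1 (stable). Backgrounds are wild type, das1Δ and doa10Δ at 30 °C, and wild type, das1Δ, cdc34-1 and cdc53-1 at 37 °C; 2-3 technical replicates each.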

[2] = test system: Saccharomyces cerevisiae; experiment: as above; settings: genetic background: wild type; temperature: 30 C
[3] = genetic background: cdc34-1, temperature: 37 C
[4] = genetic background: cdc53-1, temperature: 37 C
[5] = genetic background: das1 deletion, temperature: 30 C
[6] = genetic background: das1 deletion, temperature: 37 C
[7] = genetic background: doa10 deletion, temperature: 30 C
[8] = genetic background: wild type, temperature: 30 C
[9] = genetic background: wild type, temperature: 37 C
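Note: PSI is a weighted mean of sequencing reads over stability bins, variants kept only with over 10 reads, mCherry proximal and sfGFP distal, peptide attached via GGGS linker.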

Sequence	protein stability index [1, 3]	protein stability index [1, 4]	protein stability index [1, 5]	protein stability index [1, 6]	protein stability index [1, 7]	protein stability index [1, 8]	protein stability index [1, 9]	protein stability index [2]
RYSVIRWMLIVC	0.0413 ± 0.012	0.0475 ± 0.01	0.0885 ± 0.021	0.13 ± 0.0059	0.0358 ± 0.01	0.0321 ± 0.0053	0.0441 ± 0.0061	0.051 ± 0.013
SALLLWAISIIC	0.0476 ± 0.0084	0.117 ± 0.055	0.169 ± 0.031	0.221 ± 0.011	0.117 ± 0.019	0.15 ± 0.023	0.185 ± 0.011	0.22 ± 0.015
SCDMIVTLIQIR	0.5 ± 0.047	0.53 ± 0.022	0.375 ± 0.033	0.539 ± 0.0092	0.35 ± 0.016	0.383 ± 0.02	0.527 ± 0.0017	0.409 ± 0.027
SCICTSCLVLVL	0.5223 ± 0.0033	0.509 ± 0.024	0.327 ± 0.032	0.552 ± 0.002	0.298 ± 0.011	0.32 ± 0.029	0.5334 ± 0.0046	0.368 ± 0.049
SCPEFNIRVRNG	0.641 ± 0.033	0.669 ± 0.047	0.661 ± 0.023	0.731 ± 0.012	0.138 ± 0.022	0.168 ± 0.028	0.409 ± 0.045	0.297 ± 0.11
SCSHYRLICSRL	0.9109 ± 0.0012	0.92 ± 0.015	0.752 ± 0.022	0.87 ± 0.012	0.6118 ± 0.0026	0.579 ± 0.033	0.7975 ± 0.0065	0.598 ± 0.25
SDVHLKSEALAA	0.682 ± 0.024	0.69 ± 0.0095	0.569 ± 0.025	0.656 ± 0.013	0.5543 ± 0.0018	0.568 ± 0.02	0.663 ± 0.024	0.542 ± 0.11
SFFLIISFFVRV	0.2341 ± 0.0015	0.394 ± 0.051	0.23 ± 0.049	0.366 ± 0.031	0.239 ± 0.028	0.224 ± 0.054	0.336 ± 0.013	0.338 ± 0.066
SFFSFLLLRVPC	0.119 ± 0.022	0.144 ± 0.019	0.203 ± 0.026	0.303 ± 0.022	0.199 ± 0.0044	0.201 ± 0.026	0.288 ± 0.043	0.308 ± 0.03
SFGSMIITYAWG	0.616 ± 0.011	0.623 ± 0.0089	0.467 ± 0.021	0.638 ± 0.021	0.491 ± 0.065	0.486 ± 0.034	0.637 ± 0.026	0.473 ± 0.034
SFWLGVGIFFVG	0.544 ± 0.038	0.597 ± 0.022	0.434 ± 0.028	0.618 ± 0.028	0.405 ± 0.013	0.419 ± 0.023	0.559 ± 0.015	0.481 ± 0.021
SFYVWILLWSYY	0.26 ± 0.0071	0.256 ± 0.012	0.252 ± 0.023	0.384 ± 0.032	0.223 ± 0.015	0.214 ± 0.024	0.323 ± 0.014	0.294 ± 0.021
SGGRFVLFIIAV	0.444 ± 0.012	0.538 ± 0.048	0.376 ± 0.031	0.582 ± 0.013	0.344 ± 0.022	0.37 ± 0.023	0.535 ± 0.0051	0.42491 ± 0.00036
SGVHWFRGNSWG	0.697 ± 0.00077	0.749 ± 0.012	0.653 ± 0.0093	0.74 ± 0.027	0.657 ± 0.0087	0.646 ± 0.013	0.716 ± 0.036	0.712 ± 0.0087
SHGKDVLNKINS	0.608 ± 0.019	0.763 ± 0.045	0.633 ± 0.025	0.72 ± 0.033	0.146 ± 0.0078	0.17 ± 0.013	0.23 ± 0.036	0.319 ± 0.077
SHTRPPVTAPLH	0.689 ± 0.026	0.7142 ± 0.0027	0.646 ± 0.0068	0.72895 ± 0.00039	0.668 ± 0.033	0.654 ± 0.014	0.695 ± 0.0075	0.7165 ± 0.0055
SIFSIFFLVRNF	0.4535 ± 0.0038	0.551 ± 0.029	0.436 ± 0.037	0.59 ± 0.023	0.117 ± 0.0077	0.12 ± 0.039	0.195 ± 0.028	0.217 ± 0.0043
SIFSIRRQISFS	0.662 ± 0.0077	0.743 ± 0.009	0.653 ± 0.017	0.724 ± 0.012	0.327 ± 0.0085	0.346 ± 0.014	0.5729 ± 0.0022	0.418 ± 0.015
SILVLGRSVGVG	0.436 ± 0.026	0.4817 ± 0.00055	0.44 ± 0.027	0.521 ± 0.023	0.451 ± 0.0099	0.442 ± 0.01	0.49 ± 0.018	0.519 ± 0.07
SIQMNCILLLVI	0.211 ± 0.041	0.224 ± 0.021	0.213 ± 0.026	0.339 ± 0.012	0.188 ± 0.032	0.186 ± 0.024	0.299 ± 0.028	0.298 ± 0.058

Sequence	protein stability index [1, 3]	protein stability index [1, 4]	protein stability index [1, 5]	protein stability index [1, 6]	protein stability index [1, 7]	protein stability index [1, 8]	protein stability index [1, 9]	protein stability index [2]
SKPFPRHIFSLH	0.674 ± 0.022	0.737 ± 0.027	0.663 ± 0.026	0.7348 ± 0.0039	0.481 ± 0.03	0.4981 ± 0.0046	0.644 ± 0.012	0.503 ± 0.046
SLCWSYVWVSCP	0.264 ± 0.035	0.302 ± 0.007	0.247 ± 0.024	0.375 ± 0.0093	0.21 ± 0.0079	0.241 ± 0.022	0.343 ± 0.0047	0.334 ± 0.018
SLFERLSPVLCF	0.249 ± 0.037	0.2784 ± 0.0027	0.23 ± 0.024	0.3548 ± 0.00059	0.214 ± 0.008	0.224 ± 0.017	0.30185 ± 0.00011	0.308 ± 0.011
SLFVLLVSALLH	0.173 ± 0.029	0.32 ± 0.025	0.212 ± 0.025	0.38251 ± 0.0002	0.18 ± 0.0094	0.194 ± 0.033	0.328 ± 0.011	0.345 ± 0.02
SLGRYVSFLFVV	0.433 ± 0.02	0.6623 ± 0.0014	0.565 ± 0.024	0.668 ± 0.024	0.106 ± 0.0061	0.0996 ± 0.016	0.153 ± 0.019	0.202 ± 0.004
SLLSELILVGVS	0.394 ± 0.0081	0.409 ± 0.0044	0.284 ± 0.035	0.465 ± 0.0089	0.229 ± 0.011	0.304 ± 0.018	0.4308 ± 0.0017	0.406 ± 0.021
SLLWLYSAFVWY	0.302 ± 0.012	0.409 ± 0.011	0.347 ± 0.032	0.503 ± 0.016	0.188 ± 0.027	0.186 ± 0.023	0.386 ± 0.069	0.324 ± 0.05
SLRCILISTRVK	0.541 ± 0.02	0.601 ± 0.054	0.331 ± 0.046	0.563 ± 0.0091	0.317 ± 0.043	0.348 ± 0.021	0.531 ± 0.018	0.437 ± 0.087
SLVFCYSLFVFI	0.342 ± 0.08	0.464 ± 0.0058	0.381 ± 0.039	0.472 ± 0.012	0.368 ± 0.044	0.347 ± 0.04	0.444 ± 0.028	0.402 ± 0.017
SLYSFRCFFVLF	0.35 ± 0.027	0.461 ± 0.022	0.408 ± 0.022	0.51 ± 0.019	0.182 ± 0.0065	0.17 ± 0.012	0.235 ± 0.0058	0.263 ± 0.032
SPKFMCSLSCWW	0.714 ± 0.026	0.77647 ± 0.00063	0.685 ± 0.071	0.7527 ± 0.006	0.6577 ± 0.0042	0.665 ± 0.014	0.744 ± 0.021	0.732 ± 0.011
SPLLLIIFRSLC	0.505 ± 0.096	0.558 ± 0.0093	0.436 ± 0.039	0.623 ± 0.025	0.107 ± 0.0011	0.119 ± 0.0077	0.183 ± 0.019	0.18 ± 0.038
SREPPTSTSSRH	0.6388 ± 0.0031	0.709 ± 0.032	0.685 ± 0.012	0.669 ± 0.016	0.696 ± 0.025	0.703 ± 0.011	0.679 ± 0.0072	0.519 ± 0.13
SRFPARCLLCCW	0.531 ± 0.029	0.52 ± 0.021	0.454 ± 0.036	0.583 ± 0.017	0.4309 ± 0.002	0.449 ± 0.018	0.546 ± 0.007	0.501 ± 0.031
SRMIPSAFLLVI	0.589 ± 0.016	0.64 ± 0.012	0.507 ± 0.016	0.627 ± 0.012	0.348 ± 0.012	0.371 ± 0.02	0.513 ± 0.011	0.442 ± 0.01
SSAQKVMELQIV	0.664 ± 0.011	0.7179 ± 0.0062	0.648 ± 0.018	0.7361 ± 0.0023	0.223 ± 0.0048	0.257 ± 0.042	0.467 ± 0.035	0.404 ± 0.011
SSLGILHWRLHS	0.587 ± 0.038	0.709 ± 0.019	0.646 ± 0.011	0.7347 ± 0.0067	0.122 ± 0.022	0.14 ± 0.017	0.259 ± 0.027	0.224 ± 0.0078
SVAWFIYVARSI	0.529 ± 0.023	0.543 ± 0.072	0.482 ± 0.017	0.611 ± 0.011	0.282 ± 0.0042	0.329 ± 0.011	0.5224 ± 0.0022	0.471 ± 0.038
SVCCSLLAVASP	0.311 ± 0.035	0.355 ± 0.016	0.364 ± 0.022	0.323 ± 0.016	0.392 ± 0.029	0.384 ± 0.027	0.29 ± 0.0066	0.3666 ± 0.0026
